Three molecules from patent publication CN113754774A (SUNSHINE GUOJIAN PHARMACEUTICAL SHANGHAI CO LTD, dated 2021) can be followed below.

The target of assay [1] is T1, PD-L1-His (UniProt Q9NZQ7 19-238, limits assumed).
T1 construct: extracellular domain; Made in-house in HEK293F; used as ELISA coat and as Biacore analyte; not shown: C-terminal polyhistidine tag
As to the kind of experiment: ELISA, PD-L1-His coated at 10 ng/well.

The target of assay [2] is T2, EGFR-ECD-hFc (human, UniProt P00533 25-645).
T2 construct: extracellular domain; Made in-house in HEK293F; ELISA coating antigen; not shown: Fc segment of human IgG1
As to the kind of experiment: ELISA, EGFR-ECD-hFc coated, HRP anti-human Fab detection (Fig. 2B). (In general: In an ELISA, binding on a coated surface is turned into a signal by an enzyme label.)

Assay [3] concerns the target T2, EGFR-ECD-hFc. In words: ELISA, EGFR-ECD-hFc coated (Fig. 3B).
A further assay concerns the target 野生型EGFR on A431 cells (human, UniProt P00533 25-1210). In words: cell-based or functional assay.
In assay [4] the target is T1, PD-L1-His. As to the kind of experiment: ELISA, PD-L1-His coated (Fig. 3A).

B1: Cetuximab-HC+Anti-PDL1-LC (antibody, V domains shown)
VH: not shown
VL: EIVLTQSPDFLSVTPKEKVTITCRASQSIGTTIHWYQQKPDQSPKLLIKYASQSFSGVPSRFSGSGSGTDFTLTINSVEAEDAATYYCQQSNSWPLTFGAGTKLEIKR
notes: Hybrid antibody: heavy chain of Cetuximab with the light chain of Anti-PDL1 (the common light chain)
Usually EC50 stands for the concentration that produces a half-maximal response. High values mean weaker potency, low ones greater potency. Consider B1, for which the binding result with PD-L1-His [1] is recorded as “no binding”. Further, the 50% effective concentration (EC50) came out at 248 pM with EGFR-ECD-hFc [2] and 225 pM in the assay with EGFR-ECD-hFc [3]. Also, the “抑制A431细胞的增殖 IC50 (CCK-8)” value with 野生型EGFR on A431 cells is 563 pM.

B2: PDL1-Fab-Cetuximab-IgG1 (bispecific antibody)
heavy: not shown
light: EIVLTQSPDFLSVTPKEKVTITCRASQSIGTTIHWYQQKPDQSPKLLIKYASQSFSGVPSRFSGSGSGTDFTLTINSVEAEDAATYYCQQSNSWPLTFGAGTKLEIKRTVAAPSVFIFPPSDEQLKSGTASVVCLLNNFYPREAKVQWKVDNALQSGNSQESVTEQDSKDSTYSLSSTLTLSKADYEKHKVYACEVTHQGLSSPVTKSFNRGEC
notes: Tetravalent bispecific antibody against PD-L1 and EGFR; two long polypeptide chains and four common light chains
Consider B2, for which the figures for the EC50 in the assay with EGFR-ECD-hFc [3] and with PD-L1-His [4] were 239 pM and 200 pM, respectively. The “抑制A431细胞的增殖 IC50 (CCK-8)” value in the assay with 野生型EGFR on A431 cells turned out to be 709 pM.

B3: Cetuximab-Fab-PDL1-IgG1 (bispecific antibody)
heavy: not shown
light: B2 light
notes: as for B2
Turning to B3, the EC50 is 185 pM with EGFR-ECD-hFc [3] and 336 pM with PD-L1-His [4]. Moreover, the “抑制A431细胞的增殖 IC50 (CCK-8)” value with 野生型EGFR on A431 cells was 960 pM.
